Experimental findings from patent US20200190220A1 (FRED HUTCHINSON CANCER RESEARCH CENTER, published 2020) are described below.

For the test, the target named is T1, FITC-labeled peptide with the target sequence for the SH2 domain, EHIpYDEVAAD.
T1 construct: also called N-Glu-His-Ile-pTyr-Asp-Glu-Val-Ala-Ala-Asp-C
T1 peptide: {FITC-Ahx}-EHI[pY]DEVAAD
Nature of the test: fluorescence anisotropy of FITC-labeled peptide against rising protein concentration (FIG. 16D). The text has this:
FIGS. 16A-16E. Functional (peptide-binding) characterization of dTor_12×31L_SH2_single (12× scaffold containing 1 SH2 domain). FIG. 16A: SDS-PAGE electrophoretic analysis of purified dTor_12×31L SH2_single (corresponding to a monomeric cTRP containing 12 repeats, interrupted within repeat #3 by an SH2 domain derived from the human Nck2 adapter protein). FIG. 16B: ribbon diagram of the design of dTor_12×31L SH2_single, visualized from the top and the side of the designed protein repeats. FIG. 16C: Size Exclusion Chromatographic (SEC) separation and analysis of purified dTor_12×31L_SH2_single. Hydrodynamic radii of purified constructs, measured using dynamic light scattering (DLS), is also indicated. FIG. 16D: Binding of peptide corresponding to sequence by dTor_12×31L_SH2_single. Binding measured by monitoring Fluorescence Anisotropy signal from a labeled peptide as a function of increasing protein concentration. […]
Determination of ligand binding using Fluorescence Polarization (FP): Each protein construct was 2-fold serially diluted into twelve concentrations, from 23 μM to 0.011 μM, using FP Buffer (20 mM HEPES+150 mM KCl at pH7.4). […] Background was subtracted from raw perpendicular and parallel fluorescence intensity, which were then converted to fluorescence polarization (mP) by the following equation: […]
(In general: Polarisation of emitted light reports the rotation of a fluorescent probe.)

Where no end group is shown, it is not given here. [ ]: non-standard residue; d: D form. The star is where a group is joined. FITC = O=C1OC2(c3ccc(O)cc3Oc3cc(O)ccc32)c2ccc(NC(=S)*)cc21; pY = N[C@@H](Cc1ccc(OP(=O)(O)O)cc1)C(=O)O; Ahx = NCCCCCC(=O)O

B1: dTor_12×31L (non-functionalized, lacking any inserted SH2 domain) (designed binder)
chain: GSSMASGISVEELLKLAKAAYYSGTTVEEAYKLALKLGISVEELLKLAEAAYYSGTTVEEAYKLALKLGISVEELLKLAKAAYYSGTTVEEAYKLALKLGISVEELLKLAKAAYYSGTTVEEAYKLALKLGISVEELLKLAEAAYYSGTTVEEAYKLALKLGISVEELLKLAKAAYYSGTTVEEAYKLALKLGISVEELLKLAKAAYYSGTTVEEAYKLALKLGISVEELLKLAEAAYYSGTTVEEAYKLALKLGISVEELLKLAKAAYYSGTTVEEAYKLALKLGISVEELLKLAKAAYYSGTTVEEAYKLALKLGISVEELLKLAEAAYYSGTTVEEAYKLALKLGISVEELLKLAKAAYYSGTTVEEAYKLALKLG
With B1, the binding result is “no binding”.
